Assay results: patent publication US20240417446A1

Assays:
[1] = molecular target: SARS-CoV-2 Beta variant spike protein on pseudovirus (SARS-CoV-2), P0DTC2; test: cell-based or functional assay
[2] = molecular target: SARS-CoV-2 Delta variant spike protein on pseudovirus (SARS-CoV-2), P0DTC2; test: cell-based or functional assay

B1: NCI-CoV-S2A9 (VNAR)
chain: ARVDQTPRSVTKETGESLTINCVLRDASYALGRTCWYRKKSGSTNEESISKGGRYVETVNSGSKSFSLRINDLTVEDGGTYRCGVSTPWSCDYGPLCFYAACGDGTVVTVN
B1 gave an IC50 for neutralizing pseudovirus [1] of 2.21 µM and an IC50 for neutralizing pseudovirus [2] of 1.88 µM.
